Patent WO2022068891A1 (dated 2022)

Key:
[1] = biological target: T1, Biotinylated PD-1-huIgG1 Fc (Kactus Biosystems) (UniProt Q15116 25-167, limits assumed, biotinylated (site not given)); test: neutralisation ELISA: PD-L1-huIgG1 Fc coated, antibody titrated against biotinylated PD-1-huIgG1 Fc
T1 construct: the whole entry is named

[2] = biological target: T2, PD-1 Protein, Human, Recombinant (His Tag) (Beijing Yiqiao Shenzhou / Sino Biological) (human, UniProt Q15116 25-167); test: binding ELISA: human PD-1 His tag protein coated at 0.5 ug/ml, antibody in two-fold dilutions from 10 ug/ml
T2 construct: Bought reagent; the whole entry is named
T2 sequence (Q15116 25-167 limits assumed): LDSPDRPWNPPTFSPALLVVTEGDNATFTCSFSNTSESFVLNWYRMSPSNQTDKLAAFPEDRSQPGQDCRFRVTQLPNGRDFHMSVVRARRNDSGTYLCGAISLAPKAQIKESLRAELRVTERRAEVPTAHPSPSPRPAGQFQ

T1 sequence (Q15116 25-167 limits assumed): as above

B1: 6H6 hIgG1 form antibody (antibody, V domains shown)
VH: EVKLVESGGGLVKPGGSLKLSCAASGFTFSSYGMSWVRQTPEKRLEWVATISGGGRYTYYPDSVKGRFTISRDNAKNNLYLQMSSLRSEDTALYYCASIYDGYYFDYWGHGTTLTVSS
VL: DIVITQSPATLSVTPGDSVSLSCRASQSISNNLHWYQKKSHESPRLLIKYASQSISGIPSRFSGSGSGTDFTLSINSVETEDFGMYFCQQSNSWPLTFGAGTKLELK
notes: also called 6H6 antibody; 6H6 huIgG1 antibody
Q: What does the source list for B1?
A: IC50 [1]: 3.6 µg/mL; EC50 [2]: 0.0172 µg/mL
